In assay [1] the target is Alexa Fluor 488-labelled F405L half-Fc (IdeS fragment of α-RSV F405L IgG1WT) (human). Kind of assay: fluorescence correlation spectroscopy (FCS); constant 50 pM Alexa Fluor 488-labelled half-Fc, 1:3 or 1:4 dilutions of unlabelled half-Ab (IgG1C→S), equilibrated at room temperature overnight; diffusion times of all four half-Fc/half-Ab combinations globally fitted with one KD each for F405L homodimerisation, K409R homodimerisation and heterodimerisation.

Assay [2] addresses Alexa Fluor 488-labelled K409R half-Fc (IdeS fragment of α-gp120 K409R IgG1WT) (human). The description is as above.
For assay [3], the target named is α-RSV (clone B21M) human IgG1 F405L lacking hinge disulfides (C226S/C229S), half-Ab (human). Put plainly: hydrophobic interaction chromatography; products of cFAE analysed for the share of bsAb.
In assay [4] the target is α-gp120 (clone b12) human IgG1 K409R lacking hinge disulfides (C226S/C229S), half-Ab (human). Put plainly: FRET or BRET; Fab-arm exchange between donor (Alexa Fluor 488)- and acceptor (Alexa Fluor 594)-labelled IgG1C→S Abs, 200 nM each, PBS, 25 °C, no reductant; monoexponential exchange rate taken as the rate of dissociation of the full Ab (half-Ab dimer) into half-Abs. Background: In BRET a luciferase serves as donor, and the signal depends on an acceptor being close.

Assay [5] has as its target α-RSV (clone B21M) human IgG1 F405L lacking hinge disulfides (C226S/C229S), half-Ab (human). The assay is described as above.

Chain of α-RSV (clone B21M) human IgG1 F405L lacking hinge disulfides (C226S/C229S), half-Ab (human) (heavy, as listed by the source, chain 1 of 2): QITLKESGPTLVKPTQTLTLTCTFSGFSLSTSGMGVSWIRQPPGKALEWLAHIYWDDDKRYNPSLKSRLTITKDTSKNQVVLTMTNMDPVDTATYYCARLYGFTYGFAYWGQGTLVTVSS
Chain of α-RSV (clone B21M) human IgG1 F405L lacking hinge disulfides (C226S/C229S), half-Ab (human) (light, as listed by the source, chain 2 of 2): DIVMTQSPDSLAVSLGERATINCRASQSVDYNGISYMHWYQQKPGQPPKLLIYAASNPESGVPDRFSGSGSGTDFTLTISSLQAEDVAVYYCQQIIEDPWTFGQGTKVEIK

The term Kd denotes the equilibrium constant for the complex coming apart. As usually defined, the koff is the rate constant with which the complex falls apart. Turning to “α-gp120 (clone b12) human IgG1 K409R lacking hinge disulfides (C226S/C229S), half-Ab (antibody)”, the Kd stood at 65.6 pM in assay [1] and 337 pM in assay [2]. The percent bsAb after cFAE in assay [3] is greater than 90%. The values for the koff in assay [4] and in assay [5] were 0.000673 s⁻¹ and 0.000198 s⁻¹, respectively.

(Values after paper PMC5767869.)
